Measured values: the supplement of paper PMC9112550, “Optimization of the antimicrobial peptide Bac7 by deep mutational scanning” (BMC Biology, 2022)

What follows are sequences tested on Escherichia coli TOP10 (assay: shrunken log2 fold change of peptide-encoding DNA abundance (4.5 h post-induction vs induction); higher = less antimicrobial activity (less host growth inhibition)). Conditions: time post-induction: 4.5 h; library: site-saturation at positions 5, 18, 19, 20.
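Also: peptides expressed intracellularly from a pBAD plasmid library in pooled LB shake-flask culture, induced with 0.3% L-arabinose, DNA abundance read by NGS, three biological replicates, DESeq2 with apeglm shrinkage.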

Question: For RRIRIRPPRLPRPRPRPPYMPRP, which “shrunken log2 fold change” value is on record?
Answer: Its value is -1.19.

Question: How did the “shrunken log2 fold change” value turn out when RRIRIRPPRLPRPRPRPQAYPRP was run?
Answer: Its value is 0.0364.

Question: Which “shrunken log2 fold change” value does the source give for RRIRIRPPRLPRPRPRPQCVPRP here?
Answer: The value was -0.0555.

Question: For RRIRIRPPRLPRPRPRPQCWPRP, which “shrunken log2 fold change” value is on record?
Answer: The value was 0.203.

Question: For RRIRIRPPRLPRPRPRPQECPRP, which “shrunken log2 fold change” value is on record?
Answer: Its value is -0.0195.

Question: For RRIRIRPPRLPRPRPRPQFLPRP, which “shrunken log2 fold change” value is on record?
Answer: The value was -0.186.

Question: How did the “shrunken log2 fold change” value turn out when RRIRIRPPRLPRPRPRPQHMPRP was run?
Answer: The value was -0.94.

Question: For RRIRIRPPRLPRPRPRPQIVPRP, which “shrunken log2 fold change” value is on record?
Answer: The value was -0.167.

Question: How did the “shrunken log2 fold change” value turn out when RRIRIRPPRLPRPRPRPQKHPRP was run?
Answer: Its value is -0.46.

Question: For RRIRIRPPRLPRPRPRPQLRPRP, which “shrunken log2 fold change” value is on record?
Answer: Its value is -0.203.

Question: How did the “shrunken log2 fold change” value turn out when RRIRIRPPRLPRPRPRPQLWPRP was run?
Answer: The value was 0.575.

Question: For RRIRIRPPRLPRPRPRPQMKPRP, which “shrunken log2 fold change” value is on record?
Answer: The value was -0.747.

Question: RRIRIRPPRLPRPRPRPQNQPRP was tested. Which “shrunken log2 fold change” value did it give?
Answer: Its value is -1.03.

Question: With RRIRIRPPRLPRPRPRPQPDPRP as the sequence, how does the “shrunken log2 fold change” value read?
Answer: Its value is -0.483.

Question: RRIRIRPPRLPRPRPRPQPGPRP was tested. Which “shrunken log2 fold change” value did it give?
Answer: The value was 0.116.

Question: For RRIRIRPPRLPRPRPRPQPKPRP, which “shrunken log2 fold change” value is on record?
Answer: Its value is -0.0343.

Question: With RRIRIRPPRLPRPRPRPQSDPRP as the sequence, how does the “shrunken log2 fold change” value read?
Answer: The value was -0.212.

Question: For RRIRIRPPRLPRPRPRPQSPPRP, which “shrunken log2 fold change” value is on record?
Answer: The value was 0.0218.

Question: Which “shrunken log2 fold change” value does the source give for RRIRIRPPRLPRPRPRPQTQPRP here?
Answer: The value was -0.244.

Question: With RRIRIRPPRLPRPRPRPQTYPRP as the sequence, how does the “shrunken log2 fold change” value read?
Answer: Its value is -0.636.

Question: For RRIRIRPPRLPRPRPRPQYGPRP, which “shrunken log2 fold change” value is on record?
Answer: Its value is 0.0914.

Question: How did the “shrunken log2 fold change” value turn out when RRIRIRPPRLPRPRPRPQYHPRP was run?
Answer: The value was -0.436.

Question: For RRIRIRPPRLPRPRPRPQYNPRP, which “shrunken log2 fold change” value is on record?
Answer: Its value is -1.12.

Question: RRIRIRPPRLPRPRPRPRADPRP was tested. Which “shrunken log2 fold change” value did it give?
Answer: Its value is 0.0888.

Question: RRIRIRPPRLPRPRPRPRATPRP was tested. Which “shrunken log2 fold change” value did it give?
Answer: The value was 0.728.

Question: How did the “shrunken log2 fold change” value turn out when RRIRIRPPRLPRPRPRPRCTPRP was run?
Answer: The value was -0.141.

Question: RRIRIRPPRLPRPRPRPRDDPRP was tested. Which “shrunken log2 fold change” value did it give?
Answer: The value was 0.168.

Question: With RRIRIRPPRLPRPRPRPRDPPRP as the sequence, how does the “shrunken log2 fold change” value read?
Answer: Its value is 1.94.

Question: Which “shrunken log2 fold change” value does the source give for RRIRIRPPRLPRPRPRPRFGPRP here?
Answer: The value was 0.174.

Question: Which “shrunken log2 fold change” value does the source give for RRIRIRPPRLPRPRPRPRGCPRP here?
Answer: The value was 0.255.

Question: With RRIRIRPPRLPRPRPRPRHGPRP as the sequence, how does the “shrunken log2 fold change” value read?
Answer: The value was -0.136.

Question: Which “shrunken log2 fold change” value does the source give for RRIRIRPPRLPRPRPRPRISPRP here?
Answer: The value was -0.127.

Question: With RRIRIRPPRLPRPRPRPRKVPRP as the sequence, how does the “shrunken log2 fold change” value read?
Answer: The value was -0.0904.

Question: Which “shrunken log2 fold change” value does the source give for RRIRIRPPRLPRPRPRPRMRPRP here?
Answer: The value was 0.791.

Question: How did the “shrunken log2 fold change” value turn out when RRIRIRPPRLPRPRPRPRNGPRP was run?
Answer: Its value is 0.103.

Question: Which “shrunken log2 fold change” value does the source give for RRIRIRPPRLPRPRPRPRNHPRP here?
Answer: Its value is -0.354.

Question: RRIRIRPPRLPRPRPRPRPIPRP was tested. Which “shrunken log2 fold change” value did it give?
Answer: The value was 0.0745.

Question: RRIRIRPPRLPRPRPRPRPNPRP was tested. Which “shrunken log2 fold change” value did it give?
Answer: Its value is 0.091.

Question: Which “shrunken log2 fold change” value does the source give for RRIRIRPPRLPRPRPRPRPQPRP here?
Answer: The value was 0.321.

Question: Which “shrunken log2 fold change” value does the source give for RRIRIRPPRLPRPRPRPRPRPRP here?
Answer: Its value is 0.472.

Question: Which “shrunken log2 fold change” value does the source give for RRIRIRPPRLPRPRPRPRQAPRP here?
Answer: The value was 0.0194.

Question: How did the “shrunken log2 fold change” value turn out when RRIRIRPPRLPRPRPRPRQRPRP was run?
Answer: Its value is 0.211.

Question: With RRIRIRPPRLPRPRPRPRRDPRP as the sequence, how does the “shrunken log2 fold change” value read?
Answer: Its value is -0.108.

Question: Which “shrunken log2 fold change” value does the source give for RRIRIRPPRLPRPRPRPRRGPRP here?
Answer: Its value is 0.184.

Question: How did the “shrunken log2 fold change” value turn out when RRIRIRPPRLPRPRPRPRSTPRP was run?
Answer: Its value is -0.391.

Question: RRIRIRPPRLPRPRPRPRWDPRP was tested. Which “shrunken log2 fold change” value did it give?
Answer: The value was -0.12.

Question: RRIRIRPPRLPRPRPRPRWVPRP was tested. Which “shrunken log2 fold change” value did it give?
Answer: The value was 0.171.

Question: How did the “shrunken log2 fold change” value turn out when RRIRIRPPRLPRPRPRPRYHPRP was run?
Answer: Its value is -1.12.

Question: RRIRIRPPRLPRPRPRPRYNPRP was tested. Which “shrunken log2 fold change” value did it give?
Answer: Its value is -0.588.

Question: RRIRIRPPRLPRPRPRPRYWPRP was tested. Which “shrunken log2 fold change” value did it give?
Answer: The value was 0.0433.

Question: With RRIRIRPPRLPRPRPRPSAAPRP as the sequence, how does the “shrunken log2 fold change” value read?
Answer: Its value is 0.0317.

Question: With RRIRIRPPRLPRPRPRPSCDPRP as the sequence, how does the “shrunken log2 fold change” value read?
Answer: Its value is 0.346.

Question: Which “shrunken log2 fold change” value does the source give for RRIRIRPPRLPRPRPRPSCIPRP here?
Answer: The value was -0.0523.

Question: For RRIRIRPPRLPRPRPRPSDMPRP, which “shrunken log2 fold change” value is on record?
Answer: Its value is -0.309.

Question: Which “shrunken log2 fold change” value does the source give for RRIRIRPPRLPRPRPRPSDWPRP here?
Answer: The value was -0.0413.

Question: How did the “shrunken log2 fold change” value turn out when RRIRIRPPRLPRPRPRPSEEPRP was run?
Answer: Its value is -0.188.

Question: How did the “shrunken log2 fold change” value turn out when RRIRIRPPRLPRPRPRPSFAPRP was run?
Answer: The value was -0.24.

Question: For RRIRIRPPRLPRPRPRPSFCPRP, which “shrunken log2 fold change” value is on record?
Answer: The value was -0.656.

Question: Which “shrunken log2 fold change” value does the source give for RRIRIRPPRLPRPRPRPSFDPRP here?
Answer: The value was -0.442.

Question: With RRIRIRPPRLPRPRPRPSFMPRP as the sequence, how does the “shrunken log2 fold change” value read?
Answer: The value was -0.871.

Question: With RRIRIRPPRLPRPRPRPSFNPRP as the sequence, how does the “shrunken log2 fold change” value read?
Answer: The value was -0.838.

Question: RRIRIRPPRLPRPRPRPSFQPRP was tested. Which “shrunken log2 fold change” value did it give?
Answer: Its value is -0.329.

Question: How did the “shrunken log2 fold change” value turn out when RRIRIRPPRLPRPRPRPSFSPRP was run?
Answer: The value was -0.357.

Question: With RRIRIRPPRLPRPRPRPSFTPRP as the sequence, how does the “shrunken log2 fold change” value read?
Answer: Its value is -0.573.

Question: For RRIRIRPPRLPRPRPRPSHNPRP, which “shrunken log2 fold change” value is on record?
Answer: The value was -1.06.

Question: For RRIRIRPPRLPRPRPRPSIGPRP, which “shrunken log2 fold change” value is on record?
Answer: Its value is -0.333.

Question: Which “shrunken log2 fold change” value does the source give for RRIRIRPPRLPRPRPRPSIWPRP here?
Answer: The value was -0.0823.

Question: How did the “shrunken log2 fold change” value turn out when RRIRIRPPRLPRPRPRPSKRPRP was run?
Answer: The value was -0.622.

Question: Which “shrunken log2 fold change” value does the source give for RRIRIRPPRLPRPRPRPSKWPRP here?
Answer: Its value is -0.539.

Question: Which “shrunken log2 fold change” value does the source give for RRIRIRPPRLPRPRPRPSLKPRP here?
Answer: Its value is -0.154.

Question: Which “shrunken log2 fold change” value does the source give for RRIRIRPPRLPRPRPRPSMLPRP here?
Answer: The value was -0.422.

Question: How did the “shrunken log2 fold change” value turn out when RRIRIRPPRLPRPRPRPSMTPRP was run?
Answer: Its value is -0.43.

Question: For RRIRIRPPRLPRPRPRPSPGPRP, which “shrunken log2 fold change” value is on record?
Answer: Its value is -0.552.

Question: How did the “shrunken log2 fold change” value turn out when RRIRIRPPRLPRPRPRPSPIPRP was run?
Answer: The value was -0.574.

Question: For RRIRIRPPRLPRPRPRPSPPPRP, which “shrunken log2 fold change” value is on record?
Answer: Its value is -0.214.
